Oligonucleotides are written 5' to 3', each unit as a sugar letter and its base; * is a phosphorothioate linkage, no mark a phosphodiester; rarer units and linkages stand in square brackets, end groups in braces. Plain capitals give the bases only. r = 2'-OH (RNA); f = 2'-fluoro
T1: chymase (recombinant) (UniProt P23946 P23946:22-247)
T1 sequence: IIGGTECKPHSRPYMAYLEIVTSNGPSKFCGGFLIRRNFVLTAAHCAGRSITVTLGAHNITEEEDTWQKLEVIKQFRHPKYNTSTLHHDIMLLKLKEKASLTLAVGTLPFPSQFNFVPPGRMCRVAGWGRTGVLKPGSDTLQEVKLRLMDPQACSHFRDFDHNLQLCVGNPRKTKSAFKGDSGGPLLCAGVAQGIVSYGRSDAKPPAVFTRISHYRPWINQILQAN

T2: chymase (Homo sapiens, UniProt P23946)
T2 sequence (P23946 22-247): T1 sequence

B1: SEQ 43 (ssRNA)
RNA: GGGAGCAGGAGAGAGGUCAGAUGAUGCCAAGAUAGAUUUAAAUGGCGUUUGGGCCUAUGCGUGCUAGUGUGA
modifications: 2'-F pyrimidines
B2: 61(1) (ssRNA)
RNA: GGGUUAGAUAGAUUUAAAAACCC
modifications: G(M)G(M)G(M)U(F)U(F)AG(M)A(M)U(F)A(M)GAU(F)U(F)U(F)A(M)A(M)A(M)A(M)A(M)C(F)C(F)C(F) (M=2'-OMe, F=2'-F)
B3: SEQ 38 (ssRNA)
RNA: GGGAGCAGGAGAGAGGUCAGAUGGAUAGAGUUAAGAUCUGGCUGGCGCAUUAGCCUAUGCGUGCUAGUGUGA
modifications: 2'-F pyrimidines
B4: SEQ 47 (ssRNA)
RNA: GGGAGCAGGAGAGAGGUCAGAUGGUGAUAGAUAGAGUUAAAAUCGCUGAAUGGCCUAUGCGUGCUAGUGUGA
modifications: 2'-F pyrimidines
B5: 56(31) (ssRNA)
RNA: GGGUUAGAUAGAGUUAAAAACCC
modifications: idT-G(M)G(M)G(M)U(F)U(F)AG(M)AU(F)A(M)GAG(M)U(F)U(F)A(M)A(M)A(M)A(M)A(M)C(F)C(F)C(F)-idT (M=2'-OMe, F=2'-F)
B6: SEQ 71 (mixed)
mixed: GGGUUAGAUAGAGTUAAAAACCC
modifications: idT-G(M)G(M)G(M)U(F)U(F)AG(M)A(M)U(F)A(M)GAG(M)tU(F)A(M)A(M)A(M)A(M)A(M)C(F)C(F)C(F)-idT (lower case DNA)
B7: GGGACGGUAGGAAUUCGUCCUCAUGUCUAUUUUGCAGAUAGACUUAAAGCAAACAUAGAAGAGCGGCCGC (nucleic acid)
chain: rGrGrGrAfCrGrGfUrArGrGrArAfUfUfCrGfUfCfCfUfCrAfUrGfUfCfUrAfUfUfUfUrGfCrArGrAfUrArGrAfCfUfUrArArArGfCrArArAfCrAfUrArGrArArGrArGfCrGrGfCfCrGfC
B8: GGGACGGUAGGAAUUCUCGUUCCUGACAGCAUUUGAGAUAGAUUUAAACAAACGCACAUAGAAGAGCGGCCGC (nucleic acid)
chain: GGGACGGUAGGAAUUCUCGUUCCUGACAGCAUUUGAGAUAGAUUUAAACAAACGCACAUAGAAGAGCGGCCGC
modifications: chemistry not given here
B9: 72(1) (mixed)
mixed: GGGTTAGAUAGAGTUAAAAACCC
modifications: idT-G(M)G(M)G(M)ttAG(M)aU(F)A(M)GAG(M)tU(F)A(M)A(M)A(M)A(M)A(M)ccc-idT (lower case DNA)
B10: GGGACGGUAGGAAUUCGUCCCUCUUGUCUAUUUUGCAGAUAGACUUAAAGCAAACAUAGAAGAGCGGCCGC (nucleic acid)
chain: rGrGrGrAfCrGrGfUrArGrGrArAfUfUfCrGfUfCfCfCfUfCfUfUrGfUfCfUrAfUfUfUfUrGfCrArGrAfUrArGrAfCfUfUrArArArGfCrArArAfCrAfUrArGrArArGrArGfCrGrGfCfCrGfC
B11: SEQ 46 (ssRNA)
RNA: GGGAGCAGGAGAGAGGUCAGAUGGGACAGAUAGAGUUAAAGUCCGUUACGUGGCCUAUGCGUGCUAGUGUGA
modifications: 2'-F pyrimidines
B12: SEQ 45 (ssRNA)
RNA: GGGAGCAGGAGAGAGGUCAGAUGGACCACCGAUGGGCAAGAUAGAGUUAAAUGCCUAUGCGUGCUAGUGUGA
modifications: 2'-F pyrimidines
B13: SEQ 44 (ssRNA)
RNA: GGGAGCAGGAGAGAGGUCAGAUGUUAGACCAAAGCAUAGGAGAUAGAGUUAAACCUAUGCGUGCUAGUGUGA
modifications: 2'-F pyrimidines

Experiments:
[1] = target: T1, chymase (recombinant); assay: inhibition; SPR ++ (Table 2); details: tags: SIGMA, expressed in yeast
Procedure: (§1) Here, Suc is a protecting succinyl group, and MCA is a 4-methylcoumaryl-7-amide group; upon cleavage of the C-terminal side of phenylalanine, AMC (7-amino-4-methyl-coumarine) is released. By detecting the fluorescence of this AMC, the enzyme activity of chymase can be determined. The assay was performed using a 96-well plate (F16 Black Maxisorp Fluoronunc, manufactured by Nunc), with a reaction mixture volume of 100 μL, in solution C as a buffer solution. First, each nucleic acid was serially diluted to 0.0027-2 μM concentrations in solution C to obtain 50 μL solutions. After 10 μL of the 1 mM substrate prepared in solution C was added thereto, the plate was set to the microplate reader SpectraMax190 (manufactured by Molecular Devices Corporation), and incubated at 37° C. for 5 minutes. Separately, 0.05 μg (or 0.005 μg) of chymase (recombinant, manufactured by SIGMA) was diluted in solution C to obtain a 40 μL chymase solution, and incubated at 37° C. for 5 minutes. The chymase solution was added to the mixture of the nucleic acid and substrate to initiate an enzyme reaction. The final chymase concentration in the reaction mixture was 16.7 nM (or 1.67 nM), the final substrate concentration being 100 μM. The plate containing the reaction mixture was set to the microplate reader SpectraMax190 (manufactured by Molecular Devices Corporation), and examined for time-dependent changes in the fluorescence intensity at 37° C. for 5 minutes (or 30 minutes) (excitation wavelength 380 nm, detection wavelength 460 nm). A linear approximation of the increase in the fluorescence of the AMC released from the substrate by chymase activity was generated, and its slope was taken as the initial velocity […]. For control, samples were treated and analyzed in the same manner in two cases: use of a 30N or 40N (a nucleotide of 30 or 40 consecutive bases represented by N; N is A, G, C or T) nucleic acid pool (negative control), and use of chymostatin, a known chymotrypsin-like serine protease inhibitor (positive control). Taking the initial reaction velocity without the nucleic acid and inhibitor (V_0) as a 100% enzyme activity, the inhibitory rate of each test substance was calculated using the following equation: […]

[2] = target: T1, chymase (recombinant); assay: inhibition; SPR ++; details: tags: SIGMA, expressed in yeast
Procedure: as §1
The chymase inhibitory activity was measured in the same manner as in Example 3.

[3] = target: T2, chymase; assay: Surface plasmon resonance (Biacore T100), aptamer immobilized on SA chip, chymase injected as analyte; format: binding; details: Table 1; about 1000 RU nucleic acid immobilized, chymase 0.2 μM analyte, running buffer solution A; compared with 40N
Procedure: Binding strength is measured using Biacore T100 (manufactured by GE Healthcare). In a method of measurement, the aptamer is first immobilized onto a sensor chip, the amount immobilized being about 1000 RU. 20 μL of a chymase solution for analyte, prepared at 0.2 μM, is injected, and the binding of chymase to the aptamer is detected. An RNA comprising a random nucleotide sequence of 30 or 40 nucleotides is used as a negative control.
The binding activities against chymase of the nucleic acids shown by SEQ ID NO: 4-20 and 22-34 were determined by the surface plasmon resonance method using Biacore T100 (manufactured by GE Healthcare). The sensor chip used was the SA chip, which had streptavidin immobilized thereon. Bound thereto was about 1500 RU of a 16-nucleotide Poly dT with biotin bound to the 5′ end thereof. […] 20 μL of chymase for analyte, prepared at 0.2 μM, was injected. Solution A was used as a running buffer.
The binding activities against chymase of the nucleic acids shown by SEQ ID NO: 38-48 were evaluated by the surface plasmon resonance method. In the evaluations for SEQ ID NO: 38-48, measurements were taken in the same manner as Example 1. Solution C was used as a running buffer.

Molecule | IC50 [1] | IC50 [2] | further results
B1 | 81 nM |  | 
B2 |  | 78 nM | 
B3 | 50 nM |  | 
B4 | 58 nM |  | 
B5 |  | 23 nM | 
B6 |  | 28 nM | 
B7 |  |  | Binding activity as determined using Biacore [3]: equivalent binding activity compared with 40N
B8 |  |  | Binding activity as determined using Biacore [3]: higher binding activity than 40N
B9 |  | 13 nM | 
B10 |  |  | Binding activity as determined using Biacore [3]: higher binding activity than 40N
B11 | 38 nM |  | 
B12 | 74 nM |  | 
B13 | 49 nM |  | 

Source: patent US9012420B2, “Aptamer for chymase, and use thereof” (Ribomic Inc., priority 2009, dated 2015)
